Test results reported in patent publication US20240425593A1.
Read-outs that look alike come from different tables or passages of the source.

Experiments:
monkey PD-1-hFc (monkey) [1] = test: ELISA, coated monkey PD-1-hFc
monkey PD-1-hFc (monkey) [2] = test: ELISA, coated monkey PD-1-hFc; remark: listed apart in the source
CD64 protein = CD64 protein (UniProt P12314); test: BLI (Octet ForteBio), CD64 on SA biosensor, antibody in solution
FcRn protein = FcRn protein (UniProt P55899); test: BLI (Octet ForteBio), FcRn on SA biosensor, antibody in PBST pH6.0
[3] = target: PD-1 on Jurkat-PD-1-NFAT cells (UniProt Q15116); test: cell-based or functional assay
PD-1 on Jurkat-PD-1-NFAT cells, sequence (Q15116 25-288 limits assumed): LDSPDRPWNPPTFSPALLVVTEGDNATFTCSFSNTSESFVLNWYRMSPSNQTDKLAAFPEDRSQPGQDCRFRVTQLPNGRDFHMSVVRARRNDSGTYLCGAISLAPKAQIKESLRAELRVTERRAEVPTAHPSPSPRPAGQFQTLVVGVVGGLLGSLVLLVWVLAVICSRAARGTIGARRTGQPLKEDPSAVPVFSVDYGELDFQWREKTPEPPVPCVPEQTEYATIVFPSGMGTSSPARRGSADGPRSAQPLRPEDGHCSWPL

[4] = target: human PD-1-ECD-mFc (human; mouse) (UniProt Q15116); test: ELISA, coated human PD-1-mFc
human PD-1-ECD-mFc (human; mouse), sequence (Q15116 25-170): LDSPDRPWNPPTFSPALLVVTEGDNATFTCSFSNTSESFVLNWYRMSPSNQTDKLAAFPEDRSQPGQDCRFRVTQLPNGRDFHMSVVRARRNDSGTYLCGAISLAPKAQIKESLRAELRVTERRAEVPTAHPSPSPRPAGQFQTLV

[5] = target: full-length human PD-1 on CHO-hPD-1 cells (human) (UniProt Q15116); test: flow cytometry, FITC-labelled antibody on CHO-hPD-1 cells
full-length human PD-1 on CHO-hPD-1 cells (human), sequence (Q15116 25-288): as the sequence (Q15116 25-288 limits assumed) above

[6] = target: full-length human PD-1 on CHO-hPD-1 cells (human) (UniProt Q15116); test: flow cytometry on CHO-hPD-1 cells with FITC-labeled antibody
human PD-1-His (human) = human PD-1-His (human) (UniProt Q15116); test: BLI (Octet ForteBio), antibody on ProA biosensor, PD-1-His in solution
human PD-1-His (human), sequence (Q15116 25-170): as the sequence (Q15116 25-170) above

control antibody 3 (tirelizumab, IMGT ID: 757), sequence (HC): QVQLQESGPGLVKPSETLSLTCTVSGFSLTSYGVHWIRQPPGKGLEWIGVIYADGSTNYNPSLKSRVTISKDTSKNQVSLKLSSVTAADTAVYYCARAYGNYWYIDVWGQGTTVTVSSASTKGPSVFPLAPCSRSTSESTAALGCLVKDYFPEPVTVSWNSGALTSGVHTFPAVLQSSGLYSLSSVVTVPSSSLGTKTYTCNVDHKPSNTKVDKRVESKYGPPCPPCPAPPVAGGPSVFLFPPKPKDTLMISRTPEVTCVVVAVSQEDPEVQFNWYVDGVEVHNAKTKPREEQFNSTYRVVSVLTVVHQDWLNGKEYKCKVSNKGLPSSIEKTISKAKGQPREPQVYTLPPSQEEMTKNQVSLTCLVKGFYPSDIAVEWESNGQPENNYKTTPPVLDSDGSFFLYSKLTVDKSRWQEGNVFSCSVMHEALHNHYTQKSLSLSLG
control antibody 3 (tirelizumab, IMGT ID: 757), sequence (LC): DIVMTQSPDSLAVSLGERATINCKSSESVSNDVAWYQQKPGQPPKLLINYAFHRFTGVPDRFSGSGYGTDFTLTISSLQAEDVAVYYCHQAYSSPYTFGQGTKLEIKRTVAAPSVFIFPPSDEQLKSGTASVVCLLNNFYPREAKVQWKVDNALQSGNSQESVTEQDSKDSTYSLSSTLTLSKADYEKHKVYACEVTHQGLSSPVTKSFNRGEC
monkey PD-1-hFc (monkey), sequence (chain, as listed by the source limits assumed): as the sequence (Q15116 25-170) above, with D2E, V19L, T35A, Q67R, T144A counted along it
CD64 protein, sequence (P12314 16-288 limits assumed): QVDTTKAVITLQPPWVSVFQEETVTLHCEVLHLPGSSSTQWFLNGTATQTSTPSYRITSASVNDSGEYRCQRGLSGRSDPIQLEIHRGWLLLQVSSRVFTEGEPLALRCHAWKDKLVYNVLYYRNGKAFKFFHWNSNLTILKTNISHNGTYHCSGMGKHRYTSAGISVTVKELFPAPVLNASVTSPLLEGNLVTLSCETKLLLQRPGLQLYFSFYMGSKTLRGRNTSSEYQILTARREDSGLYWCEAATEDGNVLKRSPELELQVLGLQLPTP

EC50 (monkey PD-1-hFc (monkey) [1])	EC50 (monkey PD-1-hFc (monkey) [2])	Kd (CD64 protein)	Kd (FcRn protein)	EC50 by the PD-1/PD-L1 luciferase reporter system [3]	EC50 [4]	EC50 [5]	EC50 (read off the curve) [6]	Kd (human PD-1-His (human))	Substance
0.131 nM	0.32 nM	6.94 nM	16.8 nM	–	–	–	–	–	control antibody 1 (pembrolizumab, IMGT ID: 472)
–	0.278 nM	–	14.5 nM	3.79 nM	0.121 nM	0.094 nM	10 ng/mL	5.95 nM	control antibody 3 (tirelizumab, IMGT ID: 757)
